T1: Biotinylated human BSSL (human, UniProt P19835 21-753, Biotinylated on glycosacarides, 30-40 biotin/BSSL)
T1 construct: hBSSL biotinylated in house; also called b-hBSSL; human BSSL-biotin
T1 sequence: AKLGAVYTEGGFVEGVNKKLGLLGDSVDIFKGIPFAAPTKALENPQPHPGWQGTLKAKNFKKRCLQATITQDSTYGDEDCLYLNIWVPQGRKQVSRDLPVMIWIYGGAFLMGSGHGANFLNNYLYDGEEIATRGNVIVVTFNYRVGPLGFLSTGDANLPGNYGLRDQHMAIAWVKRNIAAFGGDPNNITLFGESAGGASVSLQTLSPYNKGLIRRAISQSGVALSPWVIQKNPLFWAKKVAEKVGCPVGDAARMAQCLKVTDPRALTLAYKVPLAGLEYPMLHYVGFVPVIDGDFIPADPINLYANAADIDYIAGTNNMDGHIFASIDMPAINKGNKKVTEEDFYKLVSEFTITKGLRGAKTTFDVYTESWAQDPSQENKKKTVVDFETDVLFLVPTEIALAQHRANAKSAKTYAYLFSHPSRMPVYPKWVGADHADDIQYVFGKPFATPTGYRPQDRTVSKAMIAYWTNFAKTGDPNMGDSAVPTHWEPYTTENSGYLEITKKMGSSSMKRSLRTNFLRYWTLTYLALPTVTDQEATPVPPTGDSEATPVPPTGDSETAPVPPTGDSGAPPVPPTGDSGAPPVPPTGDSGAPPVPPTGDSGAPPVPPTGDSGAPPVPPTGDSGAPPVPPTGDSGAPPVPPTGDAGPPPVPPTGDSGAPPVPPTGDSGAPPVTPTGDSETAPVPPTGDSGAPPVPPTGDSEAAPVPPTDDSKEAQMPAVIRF

B1: AS20 hIgG1 LALA-PG (antibody)
heavy: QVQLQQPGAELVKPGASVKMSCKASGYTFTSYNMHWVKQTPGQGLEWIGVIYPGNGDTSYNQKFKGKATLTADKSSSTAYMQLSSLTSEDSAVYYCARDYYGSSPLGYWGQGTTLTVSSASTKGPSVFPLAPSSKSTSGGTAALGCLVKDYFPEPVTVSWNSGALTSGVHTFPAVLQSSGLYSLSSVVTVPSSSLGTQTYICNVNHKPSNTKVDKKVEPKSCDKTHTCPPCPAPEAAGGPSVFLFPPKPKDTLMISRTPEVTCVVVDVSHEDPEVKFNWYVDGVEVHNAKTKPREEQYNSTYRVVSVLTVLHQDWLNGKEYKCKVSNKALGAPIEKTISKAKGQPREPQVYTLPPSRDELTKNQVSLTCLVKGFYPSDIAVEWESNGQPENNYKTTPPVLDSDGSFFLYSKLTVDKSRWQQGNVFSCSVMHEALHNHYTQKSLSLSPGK
light: QIVLTQSPAVMSASPGEKVTMTCSASSSISYMHWYQQKPGTSPKRWIYDTSKLASGVPARFSGSGSGTSYSLTISSMEAEDAATYYCHQRSSYPTFGGGTKLEIKRTVAAPSVFIFPPSDEQLKSGTASVVCLLNNFYPREAKVQWKVDNALQSGNSQESVTEQDSKDSTYSLSSTLTLSKADYEKHKVYACEVTHQGLSSPVTKSFNRGEC
notes: also called AS20 IgG1 LALA-PG
B2: Human BSSL (bile salt-stimulated lipase), native (enzyme)
chain: T1 sequence
notes: Native full-length protein purified from human milk (Astra Hässle AB); also called hBSSL; non-biotinylated human BSSL
B3: Mouse BSSL, recombinant (enzyme)
chain: AKLGAVYTEGGFVEGVNKKLSLLGGDSVDIFKGIPFATAKTLENPQRHPGWQGTLKATNFKKRCLQATITQDNTYGQEDCLYLNIWVPQGRKQVSHNLPVMVWIYGGAFLMGSGQGANFLKNYLYDGEEIATRGNVIVVTFNYRVGPLGFLSTGDANLPGNFGLRDQHMAIAWVKRNIAAFGGDPDNITIFGESAGAASVSLQTLSPYNKGLIRRAISQSGMALSPWAIQKNPLFWAKTIAKKVGCPTEDTGKMAACLKITDPRALTLAYKLPVKKQEYPVVHYLAFIPVIDGDFIPDDPINLYNNTADIDYIAGINNMDGHLFATIDVPAVDKTKQTVTEEDFYRLVSGHTVAKGLKGAQATFDIYTESWAQDPSQENMKKTVVAFETDVLFLIPTEIALAQHKAHAKSAKTYSYLFSHPSRMPIYPKWMGADHADDLQYVFGKPFATPLGYRPQDRAVSKAMIAYWTNFARSGDPNMGNSPVPTHWYPYTLENGNYLDITKTITSASMKEHLREKFLKFWAVTFEVLPTVTGDQDTLTPPEDDSEVAPDPPSDDSQVVPVPPTDDSVEAQMPATIGF
notes: Bought (R&D Systems, Cat. no 5658-CE); also called mBSSL; murine BSSL
B4: S-SL048-106 hIgG4 S228P (antibody, V domains shown)
VH: QVQLVQSGAEVKKPGASVKVSCKASGYTFTSYNMHWVRQAPGQGLEWIGVIYPGDGSTSYNQKFQGRVTMTRDTSTSTVYMELSSLRSEDTAVYYCARDYYGSSPLGYWGQGTLVTVSS
VL: DIQMTQSPSSLSASVGDRVTITCSASSSISYMNWYQQKPGKAPKLLIYATSKLPSGVPSRFSGSGSGTDFTLTISSLQPEDFATYYCHQRSSTPTFGQGTKLEIKR
notes: also called mAb106

How the values were obtained:
Mouse BSSL, recombinant [1] = target: B3; assay: SPR steady state, antibody immobilised
Description: (§1) Single cycle kinetics was used to measure the affinity of the antibodies. AS20 hIgG1 LALA-PG and anti-NP hIgG1 LALA-PG were immobilized on a CM5 S sensor chip by primary amine coupling using NHS-EDC chemistry. Five different concentrations of antigen (1:3 dilutions starting from 50 nM for hBSSL and 1:2 dilutions starting from 800 nM for mBSSL) were injected over the surface. The sensor chip surface was regenerated with 10 mM glycine-HCl pH 2.1. Obtained single cycle kinetic data was fitted to a Langmuir 1:1 binding model and kinetic parameters were retrieved using the software BlAevaluation. For mBSSL, a steady state analysis was also performed by plotting the response level at equilibrium against each concentration, and KD values were retrieved by the BlAevalution software.

[2] = target: B2; assay: SPR single cycle kinetics, antibody immobilised
Description: as §1
A single cycle kinetic SPR approach was used to determine the affinity of the IgG.

AS20 scFv = assay: HTRF competition against 5 nM b-hBSSL for 2.5 nM AS20 scFv
Description: In order to study the interaction between AS20 scFv and native mouse BSSL, a competition assay was developed. Detection of binding was enabled through donor molecule terbium-conjugated α-FLAG antibody (Cisbio #611FG2TL), which interacts with the C-terminal located FLAG-tag of the scFv, and acceptor molecule streptavidin-conjugated XL665 (Cisbio #610SAXL), which interacts with the biotin-moieties on human BSSL.
2.5 nM of AS20 scFv was pre-incubated for 2 hours with the mouse or human orthologue of BSSL, after which 5 nM b-hBSSL and the FRET donor and acceptor molecules were added. The mixture was finally incubated at room temperature for 16 hours and the binding signal (665 nm) and background/noise signal (615 nm) was measured using EnVision (PerkinElmer). The experimental output, Delta R, was calculated for each point using four replicates and two blanks.

[3] = target: B2; assay: cell-based or functional assay
[4] = target: B2; assay: cell-based or functional assay; remark: listed apart in the source
[5] = target: B2; assay: SPR single cycle kinetics, hIgG4 S228P captured by anti-Fab
Procedure, shortened: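 hIgG4 S228P captured on an immobilized anti-Fab surface; five BSSL concentrations injected, 1:5 dilutions from 50 nM (human) or from 500 nM (mouse). Human BSSL: single-cycle kinetics, 1:1 fit. Mouse BSSL: KD from steady-state equilibrium response versus concentration. Regeneration with 10 mM glycine-HCl pH 2.1.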

Biotinylated human BSSL [6] = target: T1, Biotinylated human BSSL; assay: flow cytometry displacement assay; 1.5 ug antibody, 1 ug b-hBSSL
Procedure, shortened: (§2)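 Antibody (0.5–3.0 μg per reaction) preincubated with 1 μg biotinylated human BSSL in PBS pH 7.4, 30 min at 4 °C, then with human buffy coat 30 min at 4 °C. After erythrocyte lysis/fixation, bound BSSL on CD14+ monocytes detected by labelled streptavidin via flow cytometry.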

Biotinylated human BSSL [7] = target: T1, Biotinylated human BSSL; assay: flow cytometry displacement assay; 3.0 ug antibody, 1 ug b-hBSSL
Procedure, shortened: as §2

[8] = target: B2; assay: SPR single cycle kinetics, captured by anti-Fab, Absolute Antibody batch
Description: Kinetic parameters of the hIgG4 S228P clones were determined by SPR using BIACORE® T200 (GE Healthcare). An anti-Fab antibody (GE #28958325) was immobilized on a CM5 S sensor chip by primary amine coupling using NHS-EDC chemistry. The hIgG4 antibodies were captured by the anti-Fab antibody, and subsequently, five different concentrations of hBSSL (1:5 dilutions, 0.08-50 nM) or mBSSL (1:2 dilutions, 50-800 nM) were injected over the surface. The sensor chip surface was regenerated with 10 mM glycine-HCl pH 2.1. For binding to human BSSL, single cycle kinetic data was fitted to a 1:1 binding model and kinetic parameters were retrieved using software BlAevaluation. For mouse BSSL, a steady state analysis was performed by plotting the response level at equilibrium against each concentration, and KD values were retrieved by the BlAevalution software.

Mouse BSSL, recombinant [9] = target: B3; assay: SPR steady state, hIgG4 S228P captured by anti-Fab; in-house production batch (Example 9); Table 12 marks this value # as unreliable
Description: Kinetic parameters of the hIgG4 S228P clones were determined by SPR using BIACORE® T200 (GE Healthcare). Single cycle kinetics was used to measure the affinity of the purified hIgG4 molecules to human and mouse BSSL. An anti-Fab antibody (GE Healthcare, #28958325) was immobilized on a CM5 S sensor chip by primary amine coupling using NHS-EDC chemistry. hIgG4 was captured by the anti-Fab antibody, and subsequently, five different concentrations of hBSSL (1:5 dilutions starting from 50 nM) or mBSSL (1:5 dilutions starting from 500 nM) were injected over the surface. The sensor chip surface was regenerated with 10 mM glycine-HCl pH 2.1. For binding to human BSSL, single cycle kinetic data was fitted to a 1:1 binding model and kinetic parameters were retrieved using software BlAevaluation. For mouse BSSL, a steady state analysis was performed by plotting the response level at equilibrium against each concentration, and KD values were retrieved by the BlAevalution software.

Binder: B1
Kd (Mouse BSSL, recombinant [1]): 361 nM
Kd [2]: 0.91 nM

Binder: B2
IC50 (AS20 scFv): ~2 nM

Binder: B3
IC50 (AS20 scFv): 150 to 200 nM

Binder: B4
BSSL hydrolysis of triglycerides, relative value (no antibody = 100%); 0.19 ug antibody [3]: 109%
BSSL hydrolysis of triglycerides, relative value (no antibody = 100%); 0.38 ug antibody [3]: 123%
BSSL hydrolysis of triglycerides, relative value (no antibody = 100%); 0.75 ug antibody [3]: 129%
BSSL hydrolysis of triglycerides, relative value (no antibody = 100%); 1.5 ug antibody [3]: 120%
BSSL hydrolysis of triglycerides, relative value (no antibody = 100%); 3.0 ug antibody [3]: 99.2%
BSSL hydrolysis of triglycerides, relative value (no antibody = 100%); 6.0 ug antibody [3]: 104%
BSSL hydrolysis of cholesterol esters, relative value (no antibody = 100%); 0.19 ug antibody [4]: 94.8%
BSSL hydrolysis of cholesterol esters, relative value (no antibody = 100%); 0.38 ug antibody [4]: 97.2%
BSSL hydrolysis of cholesterol esters, relative value (no antibody = 100%); 0.75 ug antibody [4]: 93.9%
BSSL hydrolysis of cholesterol esters, relative value (no antibody = 100%); 1.5 ug antibody [4]: 95.3%
BSSL hydrolysis of cholesterol esters, relative value (no antibody = 100%); 3.0 ug antibody [4]: 99%
BSSL hydrolysis of cholesterol esters, relative value (no antibody = 100%); 6.0 ug antibody [4]: 90.5%
Kd [5]: 1.2 nM
percentage reduction of b-hBSSL binding to CD14+ monocytes (Biotinylated human BSSL [6]): 52%
percentage reduction of b-hBSSL binding to CD14+ monocytes (Biotinylated human BSSL [7]): 61%
Kd [8]: 1.2 nM
Kd (Mouse BSSL, recombinant [9]): 111 nM
